# Results: patent US20190078119A1
# Molecular target: AAV8 capsid (native AAV8) (AAV8)
# Experiment: cell-based or functional assay
row,Substance,AAV8 Nab titer (neutralizing antibody titer of the antibody stock)
1,monoclonal antibody ADK8/9,2560 titer 1:n
2,monoclonal antibody ADK9,5 titer 1:n
3,monoclonal neutralizing antibody ADK8,2560 titer 1:n
